The values that follow come from publication PMC8266564.

This series has as its target T1, GFP-dRNH1 (catalytically inactive RNase H1) (Homo sapiens, UniProt O60930 28-286, D210N).
T1 sequence: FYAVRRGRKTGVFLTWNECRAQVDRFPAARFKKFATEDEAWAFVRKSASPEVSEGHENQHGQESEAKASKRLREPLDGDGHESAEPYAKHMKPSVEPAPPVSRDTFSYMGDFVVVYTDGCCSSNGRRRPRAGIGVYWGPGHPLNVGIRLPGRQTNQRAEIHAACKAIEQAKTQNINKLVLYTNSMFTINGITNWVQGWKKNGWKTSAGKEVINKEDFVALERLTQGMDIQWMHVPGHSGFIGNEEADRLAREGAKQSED
Put plainly: EMSA.

B1: 60-bp RNA-DNA hybrid (RNA60/DNA60) (DNA:RNA)
RNA: GUUGUAACGACGGCCAGUGCCAAGUUCGGAUCGACGCUCGACUCUAGAGGAUCCCGGUAC
DNA: GTACCGGGATCCTCTAGAGTCGAGCGTCGATCCGAACTTGGCACTGGCCGTCGTTACAAC
As for B1, the binding result is on record as “binds”.
